According to publication PMC6135941:

Biological target: 62 kDa active MMP-2
Assay: enzyme inhibition kinetics

A Ki of 0.154 nM was found for “TIMP-2-His6 Y90E expressed in HEK293H cells (from UniProt P16035 27-220) (natural protein)” in this work.
